Assay results: PMC8113585 (Nature Communications, 2020)

Legend:
Conditions in all cases: both partners purified
[1] = target: T1, SARS-CoV-2 nucleocapsid (N) protein, full length (N-FL, 1-419) (Severe acute respiratory syndrome …, UniProt P0DTC9); assay: SPR; Biacore X100; […]; room temperature; 1:1 binding model, […]
T1 construct: also called SARS-CoV-2 N protein

[2] = target: T2, MERS-CoV nucleocapsid (N) protein, full length (N-FL) (MERS-CoV, strain , UniProt K9N4V7); assay: as above
T2 construct: also called MERS-CoV N protein; MERS-CoV N-FL

[3] = target: T3, SARS-CoV nucleocapsid (N) protein, full length (N-FL) (Severe acute respiratory syndrome …, UniProt P59595); assay: as above
T3 construct: also called SARS-CoV N protein; SARS-CoV N-FL

[4] = target: T4, SARS-CoV-2 full-length nucleocapsid (N) protein (N-FL: 1-419) (Severe acute respiratory syndrome …, UniProt P0DTC9); assay: SPR; Biacore X100; […]; room temperature; 1:1 binding model
T4 construct: also called SARS-CoV-2 N protein

[5] = target: T5, MERS-CoV N protein (N-FL) (MERS-CoV, strain , UniProt K9N4V7); assay: as above
T5 construct: also called MERS-CoV N-FL; Middle East respiratory syndrome coronavirus N protein

[6] = target: T6, SARS-CoV N protein (N-FL) (Severe acute respiratory syndrome …, UniProt P59595); assay: as above
T6 construct: also called SARS-CoV N-FL

| Binder | koff [1] [s⁻¹] | kon [1] [M⁻¹ s⁻¹] | Kd [2] [nM] | koff [2] [s⁻¹] | kon [2] [M⁻¹ s⁻¹] | Kd [3] [nM] | koff [3] [s⁻¹] | kon [3] [M⁻¹ s⁻¹] | Kd [4] [nM] | Kd [5] [nM] | Kd [6] [nM] |
| --- | --- | --- | --- | --- | --- | --- | --- | --- | --- | --- | --- |
| mAb nCoV396 (recombinant human IgG1) (antibody, V domains shown, also called mAb-396; IgH ID H16030) VH: QVQLVESGGGVVQPGRSLRLSCAASGFTFSSYIMHWVRQAPGKGLEWVAVISYDGSNEAYADSVKGRFTISRDNSKNTLYLQMSSLRAEDTGVYYCARETGDYSSSWYDSWGRGTLVTVSS VL: QLVLTQSPSASASLGASVKLTCTLSSGHSNYAIAWHQQQPEKGPRYLMKVNSDGSHTKGDGIPDRFSGSSSGAERYLTISSLQSEDEADYYCQTWGTGIQVFGGGTKLTVL | 2.89e-06 | 2830 | 7.43 | 0.0004 | 53800 | 7.44 | 0.000295 | 39700 |  |  |  |
| human monoclonal antibody nCoV396, recombinant IgG1 (antibody, V domains shown, also called mAb nCoV396) VH: QVQLVESGGGVVQPGRSLRLSCAASGFTFSSYIMHWVRQAPGKGLEWVAVISYDGSNEAYADSVKGRFTISRDNSKNTLYLQMSSLRAEDTGVYYCARETGDYSSSWYDSWGRGTLVTVSS VL: QLVLTQSPSASASLGASVKLTCTLSSGHSNYAIAWHQQQPEKGPRYLMKVNSDGSHTKGDGIPDRFSGSSSGAERYLTISSLQSEDEADYYCQTWGTGIQVFGGGTKLTVL |  |  |  |  |  |  |  |  | 1.02 | 7.4 | 7.4 |
